Residue numbers refer to the chain shown, from its start. Names may count otherwise. Like-named read-outs stand apart in the source and are kept apart here.
B1: FKBP-159: FKBP13 DRD Q72R, Q84E, A117W, M54A G111Y; SEQ ID NO: 109 (protein)
chain: HCPIKSRKGDVLHAHYTGKLEDGTEFDSSLPRNQPFVFSLGTGEVIKGWDQGLLGMCEGEKRKLVIPSELYYGERGWPPKIPGGATLVFEVELLKIER
modifications: Description of sequence: FKBP13-AcGFP-mCherry Fusion; Construct Name: FKBP-159; FKBP13 DRD in Construct : FKBP13 (mutated to match FKBP12 active site Q72R Q84E A117W) (DRD M54A G111Y)
B2: FKBP-168: FKBP13 DRD-AcGFP construct of Table 10 (protein)
chain: B1 chain with T42W, E44R, V45R, Y71G
modifications: Description of sequence: Construct Name: FKBP-168; Mutation(s): Q72R T82W Q84R A117W DRD M54A V85R
B3: FKBP-182 (protein)
chain: B1 chain with V45R, M56W, Y71G
modifications: Description of sequence: Construct Name: FKBP-182; Mutation(s): Q72R Q84E A117W V85R DRD M54A M96W
B4: FKBP-171 (protein)
chain: B1 chain with D10L, Y71G
modifications: Description of sequence: Construct Name: FKBP-171; Mutation(s): Q72R Q84E A117W DRD M54A D50L
B5: FKBP-166 (protein)
chain: B1 chain with S39W, V45R, Y71G
modifications: Description of sequence: Construct Name: FKBP-166; Mutation(s): Q72R S79W Q84E A117W DRD M54A V85R
B6: FKBP-170 (protein)
chain: B1 chain with T42W, V45R, Y71G
modifications: Description of sequence: Construct Name: FKBP-170; Mutation(s): Q72R T82W Q84E A117W DRD M54A V85R
B7: FKBP-152: FKBP13 DRD Q72R, Q84W, A117W, M54A; SEQ ID NO: 102 (protein)
chain: B1 chain with E44W, Y71G
modifications: Description of sequence: FKBP13-AcGFP-mCherry Fusion; Construct Name: FKBP-152; FKBP13 DRD in Construct : FKBP13 (mutated to match FKBP12 active site Q72R Q84W A117W) (DRD M54A)
B8: FKBP-185 (protein)
chain: B1 chain with D10A, T17I, V45R, Y71G, I96L
modifications: Description of sequence: Construct Name: FKBP-185; Mutation(s): Q72R Q84E A117W V85R DRD M54A D50L T57I I136L
B9: FKBP-167: FKBP13 DRD-AcGFP construct of Table 10 (protein)
chain: B1 chain with S39W, E44R, V45R, Y71G
modifications: Description of sequence: Construct Name: FKBP-167; Mutation(s): Q72R S79W Q84R A117W DRD M54A V85R
B10: FKBP-177 (protein)
chain: B1 chain with L40G, Y71G
modifications: Description of sequence: Construct Name: FKBP-177; Mutation(s): Q72R Q84E A117W DRD M54AL80G
B11: FKBP-178 (protein)
chain: B1 chain with F38S, Y71G
modifications: Description of sequence: Construct Name: FKBP-178; Mutation(s): Q72R Q84E A117W DRD M54AF78S
B12: FKBP-172 (protein)
chain: B1 chain with M56W, Y71G
modifications: Description of sequence: Construct Name: FKBP-172; Mutation(s): Q72R Q84E A117W DRD M54A M96W
B13: FKBP-151: FKBP13 DRD Q72R, Q84R, A117W, M54A; SEQ ID NO: 101 (protein)
chain: B1 chain with E44R, Y71G
modifications: Description of sequence: FKBP13-AcGFP-mCherry Fusion; Construct Name: FKBP-151; FKBP13 DRD in Construct : FKBP13 (mutated to match FKBP12 active site Q72R Q84R A117W) (DRD M54A)
B14: FKBP-169 (protein)
chain: B1 chain with T42W, Y71G
modifications: Description of sequence: Construct Name: FKBP-169; Mutation(s): Q72R T82W Q84E A117W DRD M54A
B15: FKBP-181 (protein)
chain: B1 chain with D10L, V45R, Y71G
modifications: Description of sequence: Construct Name: FKBP-181; Mutation(s): Q72R Q84E A117W V85R DRD M54A D50L
B16: FKBP-186 (protein)
chain: B1 chain with V45R, Y71G, G76E
modifications: Description of sequence: Construct Name: FKBP-186; Mutation(s): Q72R Q84E A117W V85R DRD M54A G116E

Experiments:
Assay type in all cases: cell-based
[1] = system: Jurkat cells; assay: Sirolimus (rapamycin) dose response of FKBP13 constructs stably transduced into Jurkat cells, flow cytometry; settings: for Fold Change: rapamycin (sirolimus), Jurkat cells stably transduced, Table 8; for EC50 (tacrolimus)/ EC50 (rapamycin): ratio of Table 7 and Table 8 EC50 values; for EC50 (tacrolimus)/ EC50 (rapamycin) / Fold change (tacrolimus)/ Fold change (rapamycin): Jurkat cells; for Fold change (tacrolimus)/ Fold change (rapamycin): ratio of Table 7 and Table 8 fold changes; for EC90 / Rapamycin FC: rapamycin, Table 14; for Rapamycin FC: fold change
Protocol: Normalized EC50 values were calculated from the mCherry normalized GFP MFI values, which accounted for any differences in mCherry intensity between samples.

[2] = system: Jurkat cells; assay: Tacrolimus dose response of FKBP13-AcGFP-mCherry constructs stably transduced into Jurkat cells, GFP MFI by flow cytometry; parameters: Basal: unit not given here; settings: for Fold Change / EC90 / Tacrolimus FC: tacrolimus; for Fold Change: Jurkat cells stably transduced, Table 7; for Basal / FC / At 10 uM: FIG. 44; for EC90 / Tacrolimus FC: Table 14; for Tacrolimus FC: fold change
How it was run: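 Jurkat E6-1 cells lentivirally transduced with FKBP13-AcGFP-mCherry constructs to 10-25% mCherry+ (day 5) were dosed with tacrolimus. GFP geometric MFI in mCherry+ cells was measured by flow cytometry and fitted to dose-response curves.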

[3] = Example 4: dose response of FKBP constructs 160-255, Ec50, Ec90 and fold change (raw and normalized to mCherry); settings: for FC (fold change): fold change during initial analysis
Protocol: Additional experiments were performed for constructs FKBP-160-292.

[4] = FKBP constructs 160-255, not normalized, read-out: EC90
[5] = normalized to mCherry, read-out: EC90 (Norm)
[6] = normalized, read-out: Rapamycin EC90 (Norm)
[7] = read-out: Tacrolimus EC90 (Norm), normalized

Molecule	Fold Change [1]	EC50 (tacrolimus)/ EC50 (rapamycin) [1]	Fold change (tacrolimus)/ Fold change (rapamycin) [1]	Fold Change [2]	EC90 [3, 4] [nM]	FC (fold change) [3]	EC90 [3, 5] [nM]	EC90 ([1]; read-out: Rapamycin EC90) [nM]	Rapamycin FC [1]	EC90 [1, 6] [nM]	Basal [2]	FC [2]	At 10 uM [2]	EC90 [2, 7] [nM]	EC90 ([2]; read-out: Tacrolimus EC90) [nM]	Tacrolimus FC [2]
B1	0.81	1.22	1.31	1.06												
B2					342	60.2	351	1380	18	1330	72.7	60.19	4376	351	342	60.2
B3					818	64.9	928	3840	21.5	4110				928	819	64.9
B4					8160	60.3	10100	16000	14.1	18000				10100	8160	60.3
B5					220	46.0	223	1640	15.7	1580				223	220	46
B6					133	47.6	138	785	16.1	818				138	133	47.6
B7	23.17	0.55	1.31	30.34												
B8					22100	40.2	23400	5340	2	22000				23400	22100	40.2
B9					348	46.8	334	1720	11.3	1710	96	47.22	4533	334	348	46.8
B10					18700	22.3	23900	5280	2.3	6330				23900	18700	22.3
B11					22300	36.4	28400	16800	2.9	151000				28400	22300	36.4
B12					1050	63.1	1310	2140	21.3	2290				1310	1050	63.1
B13	10.15	0.91	4.14	42.03												
B14					448	50.1	493	1390	10.8	1420				493	448	50.1
B15					14100	52.0	5060	11800	15.5	11500				5060	14100	52
B16					17900	19.0	21000	5870	1.7	5220				21000	17900	19
